How the values were obtained:
RXFP1 = biological target: T1, RXFP1 (Homo sapiens, UniProt Q9HBX9); assay: cAMP activity assay in HEK-RXFP1 cells (pCRE β-gal reporter); type: cell-based; details: HEK-RXFP1 cells stably transfected with pCRE β-gal reporter, 37 °C for 6 h; four-parameter fit; mean ± S.E.M., n in brackets
T1 construct: expressed in transfected cells; host or cells: HEK-293T
T1 sequence (Q9HBX9 1-757): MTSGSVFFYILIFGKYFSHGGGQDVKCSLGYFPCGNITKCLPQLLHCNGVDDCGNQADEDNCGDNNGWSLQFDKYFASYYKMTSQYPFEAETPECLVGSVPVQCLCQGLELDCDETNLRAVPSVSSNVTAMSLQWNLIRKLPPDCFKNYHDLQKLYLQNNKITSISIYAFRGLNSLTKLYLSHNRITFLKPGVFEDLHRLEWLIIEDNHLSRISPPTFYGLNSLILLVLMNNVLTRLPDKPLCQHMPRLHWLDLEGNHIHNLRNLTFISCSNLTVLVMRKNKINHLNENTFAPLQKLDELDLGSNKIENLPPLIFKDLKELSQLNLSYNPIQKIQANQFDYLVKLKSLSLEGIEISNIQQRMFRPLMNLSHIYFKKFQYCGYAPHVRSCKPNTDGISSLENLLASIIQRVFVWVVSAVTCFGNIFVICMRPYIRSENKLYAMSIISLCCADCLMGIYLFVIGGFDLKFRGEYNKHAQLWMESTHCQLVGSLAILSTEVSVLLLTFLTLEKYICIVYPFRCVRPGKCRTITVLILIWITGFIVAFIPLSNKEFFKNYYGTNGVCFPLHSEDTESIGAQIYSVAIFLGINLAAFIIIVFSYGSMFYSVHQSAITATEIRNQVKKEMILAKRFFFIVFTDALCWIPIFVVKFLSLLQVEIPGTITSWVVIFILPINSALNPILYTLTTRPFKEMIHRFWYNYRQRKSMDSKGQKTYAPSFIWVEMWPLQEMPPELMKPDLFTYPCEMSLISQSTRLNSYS
Method: The ability of peptide analogs to activate cAMP in HEK-RXFP1 cells stably transfected with a pCRE β-gal reporter gene construct was tested as described in detail previously [13]. Cells were stimulated with increasing concentrations of peptide analogs in parallel to H2 relaxin (positive) or media (negative) controls, then incubated at 37 °C for 6 h, after which the media were aspirated, and the cells were frozen at −80 °C overnight. The following day, cAMP-driven β-gal expression was determined in cell lysates as described [32]. Experiments were performed in triplicate at least 3 times, and data were fitted to a four-parameter sigmoidal dose–response curve using GraphPad Prism 9 to determine ligand potency (pEC50).

[1] = biological target: T2, 7BP (RXFP1 ectodomain fused to the single trans-membrane-spanning domain of CD8) (Homo sapiens, UniProt Q9HBX9); assay: Competitive binding assay with Eu3+-labeled H2 relaxin in HEK-7BP cells; details: whole-cell competition binding vs Eu3+-labeled H2 relaxin, HEK cells expressing 7BP; one-site fit; mean ± S.E.M., n of experiments in brackets
T2 construct: contains the RXFP1 ectodomain fused to the single trans-membrane-spanning domain of CD8; expressed in transfected cells; host or cells: HEK cells (HEK-7BP)
T2 sequence (Q9HBX9 1-409 limits assumed): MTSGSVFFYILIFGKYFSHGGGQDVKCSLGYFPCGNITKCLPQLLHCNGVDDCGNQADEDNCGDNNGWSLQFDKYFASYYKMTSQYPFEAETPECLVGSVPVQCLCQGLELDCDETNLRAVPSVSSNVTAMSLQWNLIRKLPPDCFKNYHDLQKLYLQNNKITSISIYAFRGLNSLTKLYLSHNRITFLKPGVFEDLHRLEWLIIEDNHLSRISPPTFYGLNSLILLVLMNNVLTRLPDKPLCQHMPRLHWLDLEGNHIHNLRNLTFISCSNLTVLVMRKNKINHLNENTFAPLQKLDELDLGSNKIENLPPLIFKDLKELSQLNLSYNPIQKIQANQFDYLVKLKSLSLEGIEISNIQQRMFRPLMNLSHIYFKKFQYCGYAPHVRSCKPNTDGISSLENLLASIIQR
Method: Human embryonic kidney (HEK-293T) cells stably transfected with RXFP1 were cultured in RPMI 1640 medium supplemented with 10% fetal calf serum, 100 μg mL^−1 penicillin, 100 μg mL^−1 streptomycin, and 2 mM of L-glutamine and plated into 96-well plates pre-coated with poly-L-lysine for whole-cell binding assays (Merck, Darmstadt, Germany). Competition binding experiments using Eu^3+-labeled H2 relaxin in the absence or presence of increasing concentrations of unlabeled H2 relaxin B-chain derivatives were conducted as previously described [13]. All data are presented as the mean ± S.E.M. of the % specific binding of triplicate wells, repeated in at least three separate experiments, and curves were fitted using one-site binding curves in GraphPad Prism 9 (GraphPad Inc., San Diego, CA, USA).

- cAMP pEC50 (RXFP1): No activity
- 7BP Eu-H2 pKi [1]: < 5
Substance: B13-31: N-terminally truncated single-chain H2 relaxin analog, residues 13–31 (RELVRAQIAICGMSTWSKR; Relaxin B chain; UniProt P04090 37-55, looked up, fragment)

— PMC10454739, “Further Developments towards a Minimal Potent Derivative of Human Relaxin-2” (International Journal of Molecular Sciences, 2023)
